Assay results from patent US20210054388.

Tested on: Zif268::FokI zinc finger nuclease (synthetic)
Assay: cell_activity
Settings: N. tabacum leaf, pLSLZ.D + p35SREP, 7 dpi; 6 of 8 sequenced resistant clones mutated

Zif268 target site in gus::nptII reporter
activity (% of reporter genes with NHEJ mutations): 10
